Assay results reported in patent US20210221867A1 (Novo Nordisk, published 2021).
Positions of bridges follow the written chain, without caps; N, C: chain ends. Non-standard residues stand in square brackets, D forms with d. dPhe(4-Cl) = N[C@H](Cc1ccc(Cl)cc1)C(=O)O; dPhe(4-Me) = Cc1ccc(C[C@@H](N)C(=O)O)cc1; dPhe(4-F) = N[C@H](Cc1ccc(F)cc1)C(=O)O; Nle = CCCC[C@H](N)C(=O)O; Thz = O=C(O)[C@@H]1CSCN1; Aib = CC(C)(N)C(=O)O

B1: Ac-c[Cys-Pro-His-D-Phe-His-Trp-Cys]-Pro-Pro-D-Arg-Glu-Nle-D-Arg-D-Arg-NH2 (peptide)
peptide: Ac-CPH[dF]HWCPP[dR]E[Nle][dR][dR]-NH2
modifications: disulfide 1-7
SMILES: CCCC[C@H](NC(=O)[C@H](CCC(=O)O)NC(=O)[C@@H](CCCNC(=N)N)NC(=O)[C@@H]1CCCN1C(=O)[C@@H]1CCCN1C(=O)[C@@H]1CSSC[C@H](NC(C)=O)C(=O)N2CCC[C@H]2C(=O)N[C@@H](Cc2c[nH]cn2)C(=O)N[C@H](Cc2ccccc2)C(=O)N[C@@H](Cc2c[nH]cn2)C(=O)N[C@@H](Cc2c[nH]c3ccccc23)C(=O)N1)C(=O)N[C@H](CCCNC(=N)N)C(=O)N[C@H](CCCNC(=N)N)C(N)=O
notes: Synthetic cyclic peptide; also called Chem. 4
B2: Ac-c[Cys-Pro-His-D-Phe-His-Trp-Cys]-Pro-Pro-D-Arg-Glu-Nle-Arg-Arg-NH2 (peptide)
peptide: Ac-CPH[dF]HWCPP[dR]E[Nle]RR-NH2
modifications: disulfide 1-7
SMILES: CCCC[C@H](NC(=O)[C@H](CCC(=O)O)NC(=O)[C@@H](CCCNC(=N)N)NC(=O)[C@@H]1CCCN1C(=O)[C@@H]1CCCN1C(=O)[C@@H]1CSSC[C@H](NC(C)=O)C(=O)N2CCC[C@H]2C(=O)N[C@@H](Cc2c[nH]cn2)C(=O)N[C@H](Cc2ccccc2)C(=O)N[C@@H](Cc2c[nH]cn2)C(=O)N[C@@H](Cc2c[nH]c3ccccc23)C(=O)N1)C(=O)N[C@@H](CCCNC(=N)N)C(=O)N[C@@H](CCCNC(=N)N)C(N)=O
notes: Synthetic cyclic peptide; also called Chem. 3
B3: Ac-c[Cys-THAZ-His-D-Phe-His-Trp-Cys]-Pro-Pro-D-Arg-Glu-Nle-D-Arg-D-Arg-NH2 (peptide)
peptide: Ac-C[Thz]H[dF]HWCPP[dR]E[Nle][dR][dR]-NH2
modifications: disulfide 1-7
SMILES: CCCC[C@H](NC(=O)[C@H](CCC(=O)O)NC(=O)[C@@H](CCCNC(=N)N)NC(=O)[C@@H]1CCCN1C(=O)[C@@H]1CCCN1C(=O)[C@@H]1CSSC[C@H](NC(C)=O)C(=O)N2CSC[C@H]2C(=O)N[C@@H](Cc2c[nH]cn2)C(=O)N[C@H](Cc2ccccc2)C(=O)N[C@@H](Cc2c[nH]cn2)C(=O)N[C@@H](Cc2c[nH]c3ccccc23)C(=O)N1)C(=O)N[C@H](CCCNC(=N)N)C(=O)N[C@H](CCCNC(=N)N)C(N)=O
notes: Synthetic cyclic peptide; also called Chem. 12
B4: Ac-D-Arg-c[Cys-Pro-His-D-Phe-His-Trp-Cys]-Pro-Pro-D-Arg-Glu-Nle-NH2 (peptide)
peptide: Ac-[dR]CPH[dF]HWCPP[dR]E[Nle]-NH2
modifications: disulfide 2-8
SMILES: CCCC[C@H](NC(=O)[C@H](CCC(=O)O)NC(=O)[C@@H](CCCNC(=N)N)NC(=O)[C@@H]1CCCN1C(=O)[C@@H]1CCCN1C(=O)[C@@H]1CSSC[C@H](NC(=O)[C@@H](CCCNC(=N)N)NC(C)=O)C(=O)N2CCC[C@H]2C(=O)N[C@@H](Cc2c[nH]cn2)C(=O)N[C@H](Cc2ccccc2)C(=O)N[C@@H](Cc2c[nH]cn2)C(=O)N[C@@H](Cc2c[nH]c3ccccc23)C(=O)N1)C(N)=O
notes: Synthetic cyclic peptide; also called Chem. 7
B5: Ac-c[Cys-Aib-His-D-Phe-His-Trp-Cys]-Pro-Pro-D-Arg-Glu-Nle-D-Arg-D-Arg-NH2 (peptide)
peptide: Ac-C[Aib]H[dF]HWCPP[dR]E[Nle][dR][dR]-NH2
modifications: disulfide 1-7
SMILES: CCCC[C@H](NC(=O)[C@H](CCC(=O)O)NC(=O)[C@@H](CCCNC(=N)N)NC(=O)[C@@H]1CCCN1C(=O)[C@@H]1CCCN1C(=O)[C@@H]1CSSC[C@H](NC(C)=O)C(=O)NC(C)(C)C(=O)N[C@@H](Cc2c[nH]cn2)C(=O)N[C@H](Cc2ccccc2)C(=O)N[C@@H](Cc2c[nH]cn2)C(=O)N[C@@H](Cc2c[nH]c3ccccc23)C(=O)N1)C(=O)N[C@H](CCCNC(=N)N)C(=O)N[C@H](CCCNC(=N)N)C(N)=O
notes: Synthetic cyclic peptide; also called Chem. 13
B6: Ac-Arg-c[Cys-Pro-His-D-Phe-His-Trp-Cys]-Pro-Pro-D-Arg-Glu-Nle-Lys-NH2 (peptide)
peptide: Ac-RCPH[dF]HWCPP[dR]E[Nle]K-NH2
modifications: disulfide 2-8
SMILES: CCCC[C@H](NC(=O)[C@H](CCC(=O)O)NC(=O)[C@@H](CCCNC(=N)N)NC(=O)[C@@H]1CCCN1C(=O)[C@@H]1CCCN1C(=O)[C@@H]1CSSC[C@H](NC(=O)[C@H](CCCNC(=N)N)NC(C)=O)C(=O)N2CCC[C@H]2C(=O)N[C@@H](Cc2c[nH]cn2)C(=O)N[C@H](Cc2ccccc2)C(=O)N[C@@H](Cc2c[nH]cn2)C(=O)N[C@@H](Cc2c[nH]c3ccccc23)C(=O)N1)C(=O)N[C@@H](CCCCN)C(N)=O
notes: Synthetic cyclic peptide; also called Chem. 2
B7: Ac-Arg-c[Cys-Pro-His-D-Phe-His-Trp-Cys]-Pro-Pro-D-Arg-Glu-Nle-Arg-NH2 (peptide)
peptide: Ac-RCPH[dF]HWCPP[dR]E[Nle]R-NH2
modifications: disulfide 2-8
SMILES: CCCC[C@H](NC(=O)[C@H](CCC(=O)O)NC(=O)[C@@H](CCCNC(=N)N)NC(=O)[C@@H]1CCCN1C(=O)[C@@H]1CCCN1C(=O)[C@@H]1CSSC[C@H](NC(=O)[C@H](CCCNC(=N)N)NC(C)=O)C(=O)N2CCC[C@H]2C(=O)N[C@@H](Cc2c[nH]cn2)C(=O)N[C@H](Cc2ccccc2)C(=O)N[C@@H](Cc2c[nH]cn2)C(=O)N[C@@H](Cc2c[nH]c3ccccc23)C(=O)N1)C(=O)N[C@@H](CCCNC(=N)N)C(N)=O
notes: Synthetic cyclic peptide; also called Chem. 8
B8: Ac-c[Cys-Pro-His-D-Phe-His-Trp-Cys]-Pro-Pro-D-Arg-Glu-Nle-D-Arg-Arg-NH2 (peptide)
peptide: Ac-CPH[dF]HWCPP[dR]E[Nle][dR]R-NH2
modifications: disulfide 1-7
SMILES: CCCC[C@H](NC(=O)[C@H](CCC(=O)O)NC(=O)[C@@H](CCCNC(=N)N)NC(=O)[C@@H]1CCCN1C(=O)[C@@H]1CCCN1C(=O)[C@@H]1CSSC[C@H](NC(C)=O)C(=O)N2CCC[C@H]2C(=O)N[C@@H](Cc2c[nH]cn2)C(=O)N[C@H](Cc2ccccc2)C(=O)N[C@@H](Cc2c[nH]cn2)C(=O)N[C@@H](Cc2c[nH]c3ccccc23)C(=O)N1)C(=O)N[C@H](CCCNC(=N)N)C(=O)N[C@@H](CCCNC(=N)N)C(N)=O
notes: Synthetic cyclic peptide; also called Chem. 14
B9: Ac-c[Cys-THAZ-His-D-F-Phe-His-Trp-Cys]-Pro-Pro-D-Arg-Glu-Nle-Arg-Arg-NH2 (peptide)
peptide: Ac-C[Thz]H[dPhe(4-F)]HWCPP[dR]E[Nle]RR-NH2
modifications: disulfide 1-7
SMILES: CCCC[C@H](NC(=O)[C@H](CCC(=O)O)NC(=O)[C@@H](CCCNC(=N)N)NC(=O)[C@@H]1CCCN1C(=O)[C@@H]1CCCN1C(=O)[C@@H]1CSSC[C@H](NC(C)=O)C(=O)N2CSC[C@H]2C(=O)N[C@@H](Cc2c[nH]cn2)C(=O)N[C@H](Cc2ccc(F)cc2)C(=O)N[C@@H](Cc2c[nH]cn2)C(=O)N[C@@H](Cc2c[nH]c3ccccc23)C(=O)N1)C(=O)N[C@@H](CCCNC(=N)N)C(=O)N[C@@H](CCCNC(=N)N)C(N)=O
notes: Synthetic cyclic peptide; also called Chem. 17
B10: Ac-c[Cys-Pro-His-D-Cl-Phe-His-Trp-Cys]-Pro-Pro-D-Arg-Glu-Nle-D-Arg-D-Arg-NH2 (peptide)
peptide: Ac-CPH[dPhe(4-Cl)]HWCPP[dR]E[Nle][dR][dR]-NH2
modifications: disulfide 1-7
SMILES: CCCC[C@H](NC(=O)[C@H](CCC(=O)O)NC(=O)[C@@H](CCCNC(=N)N)NC(=O)[C@@H]1CCCN1C(=O)[C@@H]1CCCN1C(=O)[C@@H]1CSSC[C@H](NC(C)=O)C(=O)N2CCC[C@H]2C(=O)N[C@@H](Cc2c[nH]cn2)C(=O)N[C@H](Cc2ccc(Cl)cc2)C(=O)N[C@@H](Cc2c[nH]cn2)C(=O)N[C@@H](Cc2c[nH]c3ccccc23)C(=O)N1)C(=O)N[C@H](CCCNC(=N)N)C(=O)N[C@H](CCCNC(=N)N)C(N)=O
notes: Synthetic cyclic peptide; also called Chem. 10
B11: Ac-c[Cys-Pro-His-D-MePhe-His-Trp-Cys]-Pro-Pro-D-Arg-Glu-Nle-D-Arg-D-Arg-NH2 (peptide)
peptide: Ac-CPH[dPhe(4-Me)]HWCPP[dR]E[Nle][dR][dR]-NH2
modifications: disulfide 1-7
SMILES: CCCC[C@H](NC(=O)[C@H](CCC(=O)O)NC(=O)[C@@H](CCCNC(=N)N)NC(=O)[C@@H]1CCCN1C(=O)[C@@H]1CCCN1C(=O)[C@@H]1CSSC[C@H](NC(C)=O)C(=O)N2CCC[C@H]2C(=O)N[C@@H](Cc2c[nH]cn2)C(=O)N[C@H](Cc2ccc(C)cc2)C(=O)N[C@@H](Cc2c[nH]cn2)C(=O)N[C@@H](Cc2c[nH]c3ccccc23)C(=O)N1)C(=O)N[C@H](CCCNC(=N)N)C(=O)N[C@H](CCCNC(=N)N)C(N)=O
notes: Synthetic cyclic peptide; also called Chem. 9
B12: Ac-Arg-c[Cys-Pro-His-D-Phe-His-Trp-Cys]-Pro-Pro-D-Arg-Glu-Nle-NH2 (peptide)
peptide: Ac-RCPH[dF]HWCPP[dR]E[Nle]-NH2
modifications: disulfide 2-8
SMILES: CCCC[C@H](NC(=O)[C@H](CCC(=O)O)NC(=O)[C@@H](CCCNC(=N)N)NC(=O)[C@@H]1CCCN1C(=O)[C@@H]1CCCN1C(=O)[C@@H]1CSSC[C@H](NC(=O)[C@H](CCCNC(=N)N)NC(C)=O)C(=O)N2CCC[C@H]2C(=O)N[C@@H](Cc2c[nH]cn2)C(=O)N[C@H](Cc2ccccc2)C(=O)N[C@@H](Cc2c[nH]cn2)C(=O)N[C@@H](Cc2c[nH]c3ccccc23)C(=O)N1)C(N)=O
notes: Synthetic cyclic peptide; also called Chem. 1

Molecular target: T1, human MC4 receptor (human, UniProt P32245 1-332)
T1 construct: whole, on cells; cAMP assay used whole BHK cells; also called melanocortin 4 receptor
T1 sequence (P32245 whole entry): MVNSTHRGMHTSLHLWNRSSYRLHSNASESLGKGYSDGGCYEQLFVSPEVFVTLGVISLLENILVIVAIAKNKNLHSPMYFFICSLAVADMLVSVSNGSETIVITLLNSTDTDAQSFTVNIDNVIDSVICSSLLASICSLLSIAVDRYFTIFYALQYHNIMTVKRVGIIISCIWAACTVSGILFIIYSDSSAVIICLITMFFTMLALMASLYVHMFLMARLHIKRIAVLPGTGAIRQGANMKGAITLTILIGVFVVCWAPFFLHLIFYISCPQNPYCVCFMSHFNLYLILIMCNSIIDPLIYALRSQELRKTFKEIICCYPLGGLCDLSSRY
Assay: SPA competition binding, displacement of 125I-NDP-α-MSH, BHK membranes with human MC4R
Protocol: (§1) The SPA Binding assay was performed in 96-well white opaque plates. Each well contained: 0.5 mg PVT-WGA SPA beads, MC4 receptor expressing membrane diluted to give approximately 10% specific tracer binding, 50.000 dpm ¹²⁵I-NDP-α-MSH and relevant dilutions of test compound. The final volume in each well was 200 μl. […] Plates were incubated overnight (22-24 hours) at room temperature before counting for 2 minutes per well, using a TopCount NXT scintillation counter. Displacement of radio ligand is measured as reduction in light emission from SPA beads, and IC₅₀ values are calculated by nonlinear regression analysis of sigmoidal dose-response curves in GraphPad Prism (GraphPad Software, La Jolla, Calif., USA).

Row | IC50 [nM] | Binder
1 | 0.58 | B1
2 | 1.03 | B2
3 | 0.45 | B3
4 | 6.31 | B4
5 | 0.44 | B5
6 | 0.71 | B6
7 | 0.68 | B7
8 | 0.86 | B8
9 | 0.46 | B9
10 | 0.28 | B10
11 | 0.88 | B11
12 | 1.47 | B12

Molecular target: T2, human MC1 receptor (human, UniProt Q01726 1-317)
T2 sequence (Q01726 whole entry): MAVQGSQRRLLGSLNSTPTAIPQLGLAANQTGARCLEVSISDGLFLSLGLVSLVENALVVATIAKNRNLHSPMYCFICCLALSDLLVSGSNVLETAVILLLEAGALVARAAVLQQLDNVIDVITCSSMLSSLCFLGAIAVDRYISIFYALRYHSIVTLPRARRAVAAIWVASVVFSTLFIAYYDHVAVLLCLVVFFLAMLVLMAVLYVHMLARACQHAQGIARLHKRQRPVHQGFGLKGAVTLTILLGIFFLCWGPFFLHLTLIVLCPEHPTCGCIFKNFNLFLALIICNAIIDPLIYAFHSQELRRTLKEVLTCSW
Assay: cell-based or functional assay

Row | MC1R cAMP EC50 [nM] | Binder
13 | 1070 | B1
14 | 778 | B2
15 | 801 | B3
16 | 649 | B4
17 | 456 | B5
18 | 288 | B6
19 | 270 | B7
20 | 1160 | B8
21 | 888 | B9
22 | 601 | B11

Molecular target: T1, human MC4 receptor
Assay: cell-based or functional assay

Row | MC4R cAMP EC50 [nM] | Binder
23 | 0.53 | B1
24 | 1.4 | B2
25 | 0.24 | B3
26 | 2.72 | B4
27 | 0.33 | B5
28 | 1.17 | B6
29 | 0.6 | B7
30 | 1.39 | B8
31 | 0.25 | B9
32 | 0.43 | B10
33 | 2.15 | B11
34 | 1.51 | B12

Molecular target: T2, human MC1 receptor
Assay: SPA competition binding, displacement of 125I-NDP-α-MSH, BHK membranes with human MC1R
Protocol: as §1, with “MC1” for “MC4”

Row | IC50 [nM] | Binder
35 | 394 | B1
36 | 511 | B2
37 | 235 | B3
38 | 816 | B4
39 | 214 | B5
40 | 144 | B6
41 | 128 | B7
42 | 443 | B8
43 | 262 | B9
44 | 172 | B10
45 | 290 | B11
46 | 374 | B12
